The values below come from paper PMC2518108.

One assay has as its target human IGF-I (human) (UniProt P05019). The assay can be described thus: SPR; BIAcore T100, CM5 chip; human IGF-I (120 RU) or IGF-II (138 RU) amine-coupled; IGFBP-1s injected 60 s, 5 min dissociation; 25 C, HBS (10 mM HEPES, 150 mM NaCl, 3 uM EDTA, 0.05% TWEEN-20, pH 7.4), 30 uL/min; 1:1 model fitted globally, KD = kd/ka.
The target in another assay is human IGF-II (human). The assay is described as above.

Chain of human IGF-I (human) (P05019 49-118): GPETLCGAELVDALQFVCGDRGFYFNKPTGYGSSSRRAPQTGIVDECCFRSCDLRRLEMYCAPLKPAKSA
Chain of human IGFBP-1 (P08833 26-259): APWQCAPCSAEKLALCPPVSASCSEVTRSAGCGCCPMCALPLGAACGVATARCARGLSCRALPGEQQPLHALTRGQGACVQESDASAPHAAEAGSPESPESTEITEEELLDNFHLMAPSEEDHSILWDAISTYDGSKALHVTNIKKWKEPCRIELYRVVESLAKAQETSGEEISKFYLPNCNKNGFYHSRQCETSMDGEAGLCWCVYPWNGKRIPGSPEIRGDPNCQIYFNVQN

Broadly, the Kd is the concentration at which binding is half-saturated. One may read the koff as a measure of how fast the partners let go of each other. A high value points to fast dissociation. The term kon denotes the rate constant with which the complex forms. On to zebrafish IGFBP-1a (natural protein), for which, in the assay with human IGF-I (human), the Kd amounted to 0.28 nM, the koff stood at 0.000332 s⁻¹ and the kon was found to be 1.18e+06 M⁻¹ s⁻¹. In the assay with human IGF-II (human), this substance returned a Kd of 0.34 nM, a koff of 0.00029 s⁻¹ and a kon of 867000 M⁻¹ s⁻¹.
“zebrafish IGFBP-1b (from UniProt A4K8J2 1-244) (natural protein)”: in the assay with human IGF-II (human), the Kd is 9.33 nM, the dissociation rate constant (koff) was 0.00926 s⁻¹ and the kon worked out at 993000 M⁻¹ s⁻¹.
Regarding “human IGFBP-1 (from UniProt P08833 26-259) (natural protein)”, in the assay with human IGF-II (human), the Kd was determined as 8.63 nM, the koff came to 0.000457 s⁻¹ and the association rate constant (kon) is 53000 M⁻¹ s⁻¹.
